In patent US20210253718A1, “FRIZZLED5 PROTEIN-BINDING AGENTS” (Modmab Therapeutics Corporation, priority 2016, published 2021):
Substitutions are numbered along the chain they refer to. Values belong to the molecule of their own block, whether it stands above or below them.

What was measured:
Assay in all cases: Immunofluorescence of anti-FZD5 Fab binding to CHO cells overexpressing Frizzled CRD
Design in all cases: key: −: no binding; +: very weak binder; ++: weak binder; +++: good binder; ++++: very good binder
FZD10 CRD = target: T1, FZD10 CRD (Homo sapiens, UniProt Q9ULW2)
T1 construct: 30-156; GPI anchor signal (C); expressed in transfected cells; host or cells: CHO cells, lentiviral pLenti-puro
T1 sequence (Q9ULW2 30-156): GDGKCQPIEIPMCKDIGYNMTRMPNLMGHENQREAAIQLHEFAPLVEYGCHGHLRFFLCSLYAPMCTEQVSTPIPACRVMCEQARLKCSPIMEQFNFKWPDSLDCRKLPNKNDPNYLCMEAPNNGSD
Description: (§1) Plasmids: pLCKO lentiviral vector used for knockout (TKO) library construction and expression of individual gRNAs was constructed as described previously (Hart et al., 2015). Briefly, single guide RNA (sgRNA) scaffold was amplified from px330 (Addgene 42230) and cloned into pLKO.TRC005 lentiviral vector (Broad Institute, Cambridge, Mass.) using AgeI/EcoRI restriction sites. BfuAI sites were added at the 5′ end of the sgRNA scaffold for cloning the TKO library or individual gRNA target sequences. Lenti Cas9-2A-BsdR vector used to generate Cas9 stable expression cell lines was constructed as described previously (Hart et al., 2015). Briefly, lentiCRISPR pXPR_001 (Addgene 49535) was modified through removal of the sgRNA scaffold region through NdeI/EcoRI digest and blunt ends generation using Large Klenow Fragment (NEB). 2A-puro was replaced with 2A-BsdR by PCR using the NheI/MluI sites. Each of the 10 human Frizzled cysteine rich domains (CRDs) were cloned into the lentiviral expression plasmid pLenti-puro in the following cassette: FZD_CRD-MYC-GPI.
(§2) To confirm that the FZD5-WNT7B circuit is not driven simply by expression and rule out the possibility of a disconnect between RNA and protein levels for the Wnt receptors in HPAF-II cells, a panel of recombinant Fabs were generated, alternatively referred to herein as ‘Frizzled profiler’, that can detect and discriminate all but one of the ten Frizzled receptors. […] To characterize the binding specificity of these Fabs on cells, a panel of 10 CHO cell lines was generated, each expressing the CRD domain of a different myc-tagged Frizzled family member anchored at the plasma membrane through a GPI anchor (CHO-myc-FZDGPI). Despite the high sequence identity between Frizzled family members (FIG. 7A, FIG. 7B), selective Fabs were identified for FZD4, FZD5, FZD6 and FZD10 as assessed by immunofluorescence and flow cytometry (FIG. 7D and FIG. 8). […] The FZD8 CRD is most homologous to that of FZD5 (FIG. 7B). These Fabs can be used to discriminate expression of FZD1, FZD2, FZD4, FZD5, FZD6, FZD7, FZD8, FZD9 and FZD10 (FIG. 7D and FIG. 8). The ‘Frizzled profiler’ therefore consists of 10 different Fabs that can be used to discriminate expression of 9 different Frizzled family members. The Frizzled profiler was then used to confirm that HPAF-II cells express FZD1, FZD5, FZD6 and possibly FZD8 (FIG. 7E).
(§3) The binding of anti-FZD5 Fabs to cell surface-expressed Frizzled protein was further determined for each member of the Frizzled family via flow cytometry and immunofluorescence analysis of a panel of 10 CHO cell lines, each ectopically over-expressing the extracellular cysteine-rich domain (CRD) of a different Frizzled protein family member.

FZD5 CRD = target: T2, FZD5 CRD (Homo sapiens, UniProt Q13467)
T2 construct: K29-T156; GPI anchor signal (C); expressed in transfected cells; host or cells: CHO cells, lentiviral pLenti-puro
T2 sequence (Q13467 29-156): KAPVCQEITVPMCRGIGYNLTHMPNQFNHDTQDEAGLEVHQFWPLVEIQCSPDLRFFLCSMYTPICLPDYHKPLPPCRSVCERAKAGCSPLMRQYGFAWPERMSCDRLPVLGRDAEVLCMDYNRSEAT
Description: as §1, §2, §3

FZD6 CRD = target: T3, FZD6 CRD (Homo sapiens, UniProt O60353)
T3 construct: S20-P146; GPI anchor signal (C); expressed in transfected cells; host or cells: CHO cells, lentiviral pLenti-puro
T3 sequence (O60353 20-146): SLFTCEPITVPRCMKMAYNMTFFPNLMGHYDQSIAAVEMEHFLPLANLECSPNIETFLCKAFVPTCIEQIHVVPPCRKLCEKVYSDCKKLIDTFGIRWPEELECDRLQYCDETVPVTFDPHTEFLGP
Description: as §1, §2, §3

FZD9 CRD = target: T4, FZD9 CRD (Homo sapiens, UniProt O00144)
T4 construct: G35-A161; GPI anchor signal (C); expressed in transfected cells; host or cells: CHO cells, lentiviral pLenti-puro
T4 sequence (O00144 35-161): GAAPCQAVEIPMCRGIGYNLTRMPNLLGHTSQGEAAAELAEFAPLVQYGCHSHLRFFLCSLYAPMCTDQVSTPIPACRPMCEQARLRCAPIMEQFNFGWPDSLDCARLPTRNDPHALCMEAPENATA
Description: as §1, §2, §3

FZD1 CRD = target: T5, FZD1 CRD (Homo sapiens, UniProt Q9UP38)
T5 construct: D112-P238; GPI anchor signal (C); expressed in transfected cells; host or cells: CHO cells, lentiviral pLenti-puro
Description: as §1, §2, §3

FZD4 CRD = target: T6, FZD4 CRD (Homo sapiens, UniProt Q9ULV1)
T6 construct: E42-V167; GPI anchor signal (C); expressed in transfected cells; host or cells: CHO cells, lentiviral pLenti-puro
T6 sequence (Q9ULV1 42-167): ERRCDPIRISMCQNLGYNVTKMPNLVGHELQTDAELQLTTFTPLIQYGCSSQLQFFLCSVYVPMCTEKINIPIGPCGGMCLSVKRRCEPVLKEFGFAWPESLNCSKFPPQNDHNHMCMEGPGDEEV
Description: as §1, §2, §3

FZD2 CRD = target: T7, FZD2 CRD (Homo sapiens, UniProt Q14332)
T7 construct: D35-P161; GPI anchor signal (C); expressed in transfected cells; host or cells: CHO cells, lentiviral pLenti-puro
Description: as §1, §2, §3

B1: Fab-2902: anti-FZD5 Fab with antibody variable region Fv-2902; CDR SEQ ID NOs: 35, 36, 41, 80, 117, 153 (antibody, V domains shown)
VH: EVQLVESGGGLVQPGGSLRLSCAASGFNISYYYIHWVRQAPGKGLEWVASISSSSSSTSYADSVKGRFTISADTSKNTAYLQMNSLRAEDTAVYYCARGALDYWGQGTLVTVSS
VL: DIQMTQSPSSLSASVGDRVTITCRASQSVSSAVAWYQQKPGKAPKLLIYSASSLYSGVPSRFSGSRSGTDFTLTISSLQPEDFATYYCQQWYAFGALITFGQGTKVEIK
Immunofluorescence binding, Frizzled CRD overexpressed on CHO cells: FZD10 (FZD10 CRD): − | Immunofluorescence binding, Frizzled CRD overexpressed on CHO cells: FZD5 (FZD5 CRD): ++++ | Immunofluorescence binding, Frizzled CRD overexpressed on CHO cells: FZD6 (FZD6 CRD): − | Immunofluorescence binding, Frizzled CRD overexpressed on CHO cells: FZD9 (FZD9 CRD): − | Immunofluorescence binding, Frizzled CRD overexpressed on CHO cells: FZD1 (FZD1 CRD): − | Immunofluorescence binding, Frizzled CRD overexpressed on CHO cells: FZD4 (FZD4 CRD): − | Immunofluorescence binding, Frizzled CRD overexpressed on CHO cells: FZD2 (FZD2 CRD): −

B5: Fab-2903: anti-FZD5 Fab with antibody variable region Fv-2903; CDR SEQ ID NOs: 35, 36, 42, 81, 118, 155 (antibody, V domains shown)
VH: B1 VH with I29L, S52Y, S53P, S54Y, S57Y, L101I
VL: B1 VL with Y92G, A93G, F94G, G95S, A96S, I98F
Immunofluorescence binding, Frizzled CRD overexpressed on CHO cells: FZD10 (FZD10 CRD): − | Immunofluorescence binding, Frizzled CRD overexpressed on CHO cells: FZD5 (FZD5 CRD): ++++ | Immunofluorescence binding, Frizzled CRD overexpressed on CHO cells: FZD6 (FZD6 CRD): − | Immunofluorescence binding, Frizzled CRD overexpressed on CHO cells: FZD9 (FZD9 CRD): − | Immunofluorescence binding, Frizzled CRD overexpressed on CHO cells: FZD1 (FZD1 CRD): + | Immunofluorescence binding, Frizzled CRD overexpressed on CHO cells: FZD4 (FZD4 CRD): − | Immunofluorescence binding, Frizzled CRD overexpressed on CHO cells: FZD2 (FZD2 CRD): −

B6: Fab-2906: anti-FZD5 Fab with antibody variable region Fv-2906; CDR SEQ ID NOs: 35, 36, 45, 84, 121, 158 (antibody, V domains shown)
VH: EVQLVESGGGLVQPGGSLRLSCAASGFNFSSSSIHWVRQAPGKGLEWVAYISSSYGYTYYADSVKGRFTISADTSKNTAYLQMNSLRAEDTAVYYCARTVRGSKKPYFSGWAMDYWGQGTLVTVSS
VL: DIQMTQSPSSLSASVGDRVTITCRASQSVSSAVAWYQQKPGKAPKLLIYSASSLYSGVPSRFSGSRSGTDFTLTISSLQPEDFATYYCQQWSWGFLITFGQGTKVEIK
Immunofluorescence binding, Frizzled CRD overexpressed on CHO cells: FZD10 (FZD10 CRD): +++ | Immunofluorescence binding, Frizzled CRD overexpressed on CHO cells: FZD5 (FZD5 CRD): ++++ | Immunofluorescence binding, Frizzled CRD overexpressed on CHO cells: FZD6 (FZD6 CRD): − | Immunofluorescence binding, Frizzled CRD overexpressed on CHO cells: FZD9 (FZD9 CRD): − | Immunofluorescence binding, Frizzled CRD overexpressed on CHO cells: FZD1 (FZD1 CRD): − | Immunofluorescence binding, Frizzled CRD overexpressed on CHO cells: FZD4 (FZD4 CRD): − | Immunofluorescence binding, Frizzled CRD overexpressed on CHO cells: FZD2 (FZD2 CRD): −

Other lines, results leading:

Immunofluorescence binding, Frizzled CRD overexpressed on CHO cells: FZD10 (FZD10 CRD): − | Immunofluorescence binding, Frizzled CRD overexpressed on CHO cells: FZD5 (FZD5 CRD): +++ | Immunofluorescence binding, Frizzled CRD overexpressed on CHO cells: FZD6 (FZD6 CRD): − | Immunofluorescence binding, Frizzled CRD overexpressed on CHO cells: FZD9 (FZD9 CRD): − | Immunofluorescence binding, Frizzled CRD overexpressed on CHO cells: FZD1 (FZD1 CRD): − | Immunofluorescence binding, Frizzled CRD overexpressed on CHO cells: FZD4 (FZD4 CRD): − | Immunofluorescence binding, Frizzled CRD overexpressed on CHO cells: FZD2 (FZD2 CRD): −
B2: Fab-2909: anti-FZD5 Fab with antibody variable region Fv-2909; CDR SEQ ID NOs: 35, 36, 48, 87, 124, 161 (antibody, V domains shown)
VH: B6 VH with F29I, S33Y, I34M, Y50S, Y55S, Y59S
VL: B1 VL with W91S, Y92W, A93S, F94Y, G95H, A96Y

Immunofluorescence binding, Frizzled CRD overexpressed on CHO cells: FZD10 (FZD10 CRD): − | Immunofluorescence binding, Frizzled CRD overexpressed on CHO cells: FZD5 (FZD5 CRD): ++++ | Immunofluorescence binding, Frizzled CRD overexpressed on CHO cells: FZD6 (FZD6 CRD): − | Immunofluorescence binding, Frizzled CRD overexpressed on CHO cells: FZD9 (FZD9 CRD): − | Immunofluorescence binding, Frizzled CRD overexpressed on CHO cells: FZD1 (FZD1 CRD): − | Immunofluorescence binding, Frizzled CRD overexpressed on CHO cells: FZD4 (FZD4 CRD): − | Immunofluorescence binding, Frizzled CRD overexpressed on CHO cells: FZD2 (FZD2 CRD): −
B3: Fab-2910: anti-FZD5 Fab with antibody variable region Fv-2910; CDR SEQ ID NOs: 35, 36, 49, 88, 125, 162 (antibody, V domains shown)
VH: B1 VH with Y32S, I34M, S52Y, L101M
VL: B6 VL with S92Y, W93G, G94S, F95H

Immunofluorescence binding, Frizzled CRD overexpressed on CHO cells: FZD10 (FZD10 CRD): − | Immunofluorescence binding, Frizzled CRD overexpressed on CHO cells: FZD5 (FZD5 CRD): ++++ | Immunofluorescence binding, Frizzled CRD overexpressed on CHO cells: FZD6 (FZD6 CRD): − | Immunofluorescence binding, Frizzled CRD overexpressed on CHO cells: FZD9 (FZD9 CRD): − | Immunofluorescence binding, Frizzled CRD overexpressed on CHO cells: FZD1 (FZD1 CRD): − | Immunofluorescence binding, Frizzled CRD overexpressed on CHO cells: FZD4 (FZD4 CRD): − | Immunofluorescence binding, Frizzled CRD overexpressed on CHO cells: FZD2 (FZD2 CRD): −
B4: Fab-2907: anti-FZD5 Fab with antibody variable region Fv-2907; CDR SEQ ID NOs: 35, 36, 46, 85, 122, 159 (antibody, V domains shown)
VH: EVQLVESGGGLVQPGGSLRLSCAASGFNIYSSYMHWVRQAPGKGLEWVASISSYSGSTYYADSVKGRFTISADTSKNTAYLQMNSLRAEDTAVYYCARSSWGAYIVSYGFDYWGQGTLVTVSS
VL: B1 VL with W91V, Y92G, A93Y, F94W, G95W, A96G
